Reference: paper PMC11432007

Molecular target: GABAA receptor β2 subunit extracellular domain fragment Gln25–Gly243 (human (abstract, Figure 1); 'bovine gene' in the methods) (UniProt P47870)
Experiment: negative staining electron microscopy; single refolded subunit fragment, dialysed into 10 mM glycine pH 10.3; 2% uranyl acetate on carbon-coated copper grid, 120 kV TEM; 2D classification in Relion from manually picked particles of 20 micrographs

stoichiometry N: 5
Substance: GABAA receptor β2 subunit extracellular domain fragment Gln25–Gly243 (from UniProt P47870 25-243) (domain or fragment)
